Test results reported in US20210292396A1.

Columns and labels:
Assay in all cases: cell-based or functional assay
[1] = biological target: Env of HIV isolate 0013095-2.11 (clade C) (HIV)
[2] = biological target: Env of HIV isolate 001428-2.42 (clade C) (HIV)
[3] = biological target: Env of HIV isolate 0330.v4.c3 (clade A) (HIV)
[4] = biological target: Env of HIV isolate 16845-2.22 (clade C) (HIV)
[5] = biological target: Env of HIV isolate 25710-2.43 (clade C) (HIV)
[6] = biological target: Env of HIV isolate 3168.v4.c10 (clade C) (HIV)
[7] = biological target: Env of HIV isolate 3365.v2.c20 (clade A) (HIV)
[8] = biological target: Env of HIV isolate 3589.v1.c4 (clade AC) (HIV)
[9] = biological target: Env of HIV isolate 3637.v5.c3 (clade C) (HIV)
[10] = biological target: Env of HIV isolate 96ZM651.02 (clade C) (HIV)
[11] = biological target: Env of HIV isolate ADA.DG (clade B) (HIV)
[12] = biological target: Env of HIV isolate BB201.B42 (clade A) (HIV)
[13] = biological target: Env of HIV isolate BJOX009000.02.4 (clade AE) (HIV)
[14] = biological target: Env of HIV isolate BJOX010000.06.2 (clade AE) (HIV)
[15] = biological target: Env of HIV isolate BJOX028000.10.3 (clade AE) (HIV)
[16] = biological target: Env of HIV isolate CAP45.G3 (clade C) (HIV)
[17] = biological target: Env of HIV isolate CH119.10 (clade BC) (HIV)
[18] = biological target: Env of HIV isolate CH181.12 (clade BC) (HIV)
[19] = biological target: Env of HIV isolate CNE19 (clade BC) (HIV)
[20] = biological target: Env of HIV isolate CNE57 (clade B) (HIV)
[21] = biological target: Env of HIV isolate CNE58 (clade C in Table 7) (HIV)
[22] = biological target: Env of HIV isolate DU123.06 (clade C) (HIV)
[23] = biological target: Env of HIV isolate KNH1209.18 (clade A) (HIV)
[24] = biological target: Env of HIV isolate M02138 (clade AE) (HIV)
[25] = biological target: Env of HIV isolate R1166.C1 (clade AE) (HIV)
[26] = biological target: Env of HIV isolate UG037.8 (clade A) (HIV)
[27] = biological target: Env of HIV isolate ZM233.6 (clade C) (HIV)
[28] = biological target: HIV Env of isolate 16936-2.21 (HIV)
[29] = biological target: HIV Env of isolate 26191-2.48 (HIV)
[30] = biological target: HIV Env of isolate 3326.v4.c3 (HIV)
[31] = biological target: HIV Env of isolate 3873.v1.c24 (HIV)
[32] = biological target: HIV Env of isolate 398-F1.F6.20 (HIV)
[33] = biological target: HIV Env of isolate 57128.vrc15 (HIV)
[34] = biological target: HIV Env of isolate 6322.v4.c1 (HIV)
[35] = biological target: HIV Env of isolate 6644.v2.c33 (HIV)
[36] = biological target: HIV Env of isolate 7165.18 (HIV)
[37] = biological target: HIV Env of isolate BB539.2B13 (HIV)
[38] = biological target: HIV Env of isolate BR025.9 (HIV)
[39] = biological target: HIV Env of isolate BR07.DG (HIV)
[40] = biological target: HIV Env of isolate CAP244.D3 (HIV)
[41] = biological target: HIV Env of isolate CAP256.206.C9 (HIV)
[42] = biological target: HIV Env of isolate CNE14 (HIV)
[43] = biological target: HIV Env of isolate CNE55 (HIV)
[44] = biological target: HIV Env of isolate HT593.1 (HIV)
[45] = biological target: HIV Env of isolate NKU3006.ec1 (HIV)
[46] = biological target: HIV Env of isolate P0402.c2.11 (HIV)
[47] = biological target: HIV Env of isolate RW020.2 (HIV)
[48] = biological target: HIV Env of isolate T253-11 (HIV)
[49] = biological target: HIV Env of isolate X2088.c9 (HIV)
[50] = biological target: HIV Env of isolate X2278.C2.B6 (HIV)
[51] = biological target: HIV Env of isolate ZM214.15 (HIV)
[52] = biological target: HIV Env of isolate ZM249.1 (HIV)

Substance: PGT121 (antibody)
- IC50, pseudovirus neutralization [1]: > 50 µg/mL
- IC50, pseudovirus neutralization [2]: 0.0337 µg/mL
- IC50, pseudovirus neutralization [3]: 0.0597 µg/mL
- IC50, pseudovirus neutralization [4]: 2.72 µg/mL
- IC50, pseudovirus neutralization [5]: 0.0227 µg/mL
- IC50, pseudovirus neutralization [6]: 0.446 µg/mL
- IC50, pseudovirus neutralization [7]: 0.112 µg/mL
- IC50, pseudovirus neutralization [8]: > 50 µg/mL
- IC50, pseudovirus neutralization [9]: > 50 µg/mL
- IC50, pseudovirus neutralization [10]: 0.0213 µg/mL
- IC50, pseudovirus neutralization [11]: 0.0333 µg/mL
- IC50, pseudovirus neutralization [12]: 0.00933 µg/mL
- IC50, pseudovirus neutralization [13]: 0.751 µg/mL
- IC50, pseudovirus neutralization [14]: > 50 µg/mL
- IC50, pseudovirus neutralization [15]: > 50 µg/mL
- IC50, pseudovirus neutralization [16]: 0.866 µg/mL
- IC50, pseudovirus neutralization [17]: 0.0313 µg/mL
- IC50, pseudovirus neutralization [18]: 0.0313 µg/mL
- IC50, pseudovirus neutralization [19]: 0.00933 µg/mL
- IC50, pseudovirus neutralization [20]: 0.0283 µg/mL
- IC50, pseudovirus neutralization [21]: 9.34 µg/mL
- IC50, pseudovirus neutralization [22]: 0.0477 µg/mL
- IC50, pseudovirus neutralization [23]: 0.0117 µg/mL
- IC50, pseudovirus neutralization [24]: > 50 µg/mL
- IC50, pseudovirus neutralization [25]: > 50 µg/mL
- IC50, pseudovirus neutralization [26]: 0.092 µg/mL
- IC50, pseudovirus neutralization [27]: 0.731 µg/mL
- IC80, pseudovirus neutralization [28]: 0.024 µg/mL
- IC80, pseudovirus neutralization [29]: 0.236 µg/mL
- IC80, pseudovirus neutralization [30]: > 50 µg/mL
- IC80, pseudovirus neutralization [31]: 0.113 µg/mL
- IC80 [32]: 0.0527 µg/mL
- IC80, pseudovirus neutralization [33]: > 50 µg/mL
- IC80, pseudovirus neutralization [34]: > 50 µg/mL
- IC80, pseudovirus neutralization [35]: 0.14 µg/mL
- IC80 [36]: 0.103 µg/mL
- IC80 [37]: > 50 µg/mL
- IC80, pseudovirus neutralization [38]: 0.0253 µg/mL
- IC80 [39]: 0.596 µg/mL
- IC80, pseudovirus neutralization [40]: > 50 µg/mL
- IC80, pseudovirus neutralization [41]: 0.046 µg/mL
- IC80 [42]: 0.0243 µg/mL
- IC80 [43]: > 50 µg/mL
- IC80 [44]: > 50 µg/mL
- IC80, pseudovirus neutralization [45]: > 50 µg/mL
- IC80, pseudovirus neutralization [46]: 0.0297 µg/mL
- IC80 [47]: 0.0177 µg/mL
- IC80 [48]: > 50 µg/mL
- IC80, pseudovirus neutralization [49]: 0.019 µg/mL
- IC80 [50]: 0.072 µg/mL
- IC80, pseudovirus neutralization [51]: 1.57 µg/mL
- IC80, pseudovirus neutralization [52]: > 50 µg/mL
